We go through seven molecules from publication PMC6212772.

For data set [1], the target named is T1, GST-ZBTB24 zinc finger domain (UniProt O43167 294-512). The data set is described as follows: EMSA. A general note: In EMSA bound probe runs differently from free probe, usually more slowly.
Data set [2] concerns the target T1, GST-ZBTB24 zinc finger domain. The data set is described as follows: EMSA. This is another data set of the same source.
Data set [3] has the same target. Description: competition.

T1 sequence (O43167 294-512): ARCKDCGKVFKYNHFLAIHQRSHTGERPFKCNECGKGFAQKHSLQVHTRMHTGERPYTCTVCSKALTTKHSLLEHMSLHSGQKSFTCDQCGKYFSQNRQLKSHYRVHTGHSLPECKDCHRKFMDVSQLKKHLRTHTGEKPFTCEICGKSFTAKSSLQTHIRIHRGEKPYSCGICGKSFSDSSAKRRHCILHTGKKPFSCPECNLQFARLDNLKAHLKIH

B1: OSTC promoter (dsDNA)
DNA 1: GTTAGAAGTCCCGCAGGTCCTTGAAGGTACACAAATCACC
DNA 2: GGTGATTTGTGTACCTTCAAGGACCTGCGGGACTTCTAAC
In the case of B1, in data set [1], the binding result is recorded as “binds”.

B2: CDCA7 outside promoter motif (dsDNA)
DNA 1: GGGTGCTGGACGCAGGCGGGCGCGGGCCGACCCTCTCCAA
DNA 2: TTGGAGAGGGTCGGCCCGCGCCCGCCTGCGTCCAGCACCC
For the molecule B2, the binding result in data set [1] is “no binding”.

B3: GAPDH promoter (dsDNA)
DNA 1: GAGCCTGGCGGGAGGCGGGGTCCGAGTCACCGCCTGCCGC
DNA 2: GCGGCAGGCGGTGACTCGGACCCCGCCTCCCGCCAGGCTC
With B3, the binding result in data set [1] is reported as “no binding”.

B4: CDCA7 promoter (dsDNA)
DNA 1: GGCCGTTACCACAGCTTGCAGGACCTGTGTCCCAACGCGG
DNA 2: CCGCGTTGGGACACAGGTCCTGCAAGCTGTGGTAACGGCC
Take B4: in data set [1], the binding result is listed as “binds”.

B5: CAMKMT promoter wt (dsDNA)
DNA 1: GGGAAGAAGTTGGCAGGTCCTGGCAGGGGACGAGCTGCGGC
DNA 2: GCCGCAGCTCGTCCCCTGCCAGGACCTGCCAACTTCTTCCC
As to B5, the binding result in data set [2] is “binds”.

B6: CAMKMT promoter mut2 (dsDNA)
DNA 1: GGGAAGAAGTTGGCAGATACTGGCAGTGGACGAGCTGCGGC
DNA 2: GCCGCAGCTCGTCCACTGCCAGTATCTGCCAACTTCTTCCC
Regarding B6, in data set [3], the binding result is reported as “no binding”.

B7: CAMKMT promoter mut1 (dsDNA)
DNA 1: GGGAAGAAGTTGGCAGGTACTGGCAGGGGACGAGCTGCGGC
DNA 2: GCCGCAGCTCGTCCCCTGCCAGTACCTGCCAACTTCTTCCC
On to B7, for which the binding result in data set [3] is reported as “no binding”.
